Test results published in patent US20100190701A1 (INDIANA UNIVERSITY RESEARCH AND TECHNOLOGY, published 2010).
Read-outs that look alike come from different tables or passages of the source. Bridge positions count the residues as written; N and C are the ends. Square brackets hold non-standard residues; d marks the D form. Ends that are not written are not given here. Nle = CCCC[C@H](N)C(=O)O; Orn = NCCC[C@H](N)C(=O)O; PEG = not defined here; Aib = CC(C)(N)C(=O)O

What was measured:
Assay in all cases: cell-based or functional assay
GLP-1 receptor [1] = biological target: T1, GLP-1 receptor (UniProt P43220 24-463, limits assumed)
glucagon receptor [2] = biological target: T2, glucagon receptor (UniProt P47871 26-477, limits assumed)
GLP-1 receptor [3] = biological target: T1, GLP-1 receptor; remark: listed apart in the source
glucagon receptor [4] = biological target: T2, glucagon receptor; remark: listed apart in the source
GLP-1 receptor [5] = biological target: T1, GLP-1 receptor; remark: listed apart in the source
GLP-1 receptor [6] = biological target: T1, GLP-1 receptor; remark: listed apart in the source

T2 sequence (P47871 26-477 limits assumed): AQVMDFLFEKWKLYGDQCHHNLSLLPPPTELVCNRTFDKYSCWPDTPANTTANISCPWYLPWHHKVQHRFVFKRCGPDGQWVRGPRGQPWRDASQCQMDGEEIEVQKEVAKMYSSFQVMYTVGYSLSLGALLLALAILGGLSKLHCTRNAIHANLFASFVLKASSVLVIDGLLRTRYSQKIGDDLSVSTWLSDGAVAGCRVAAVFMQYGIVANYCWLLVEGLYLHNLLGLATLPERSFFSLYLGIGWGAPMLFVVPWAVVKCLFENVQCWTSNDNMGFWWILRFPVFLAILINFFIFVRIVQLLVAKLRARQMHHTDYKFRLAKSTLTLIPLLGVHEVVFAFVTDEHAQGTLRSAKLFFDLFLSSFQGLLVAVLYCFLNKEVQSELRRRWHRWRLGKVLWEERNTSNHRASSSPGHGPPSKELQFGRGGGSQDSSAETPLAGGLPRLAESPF

H[Aib]QGTFTSDYSKYLDEQAAKEFICWLMNT-NH2 [Chimera AIB2, Cys24 (SEQ ID NO: 486), parent w/o PEG]
% Potency Relative to Native (GLP-1 receptor [1]): 161%
% Potency Relative to Native (glucagon receptor [2]): 15.4%

H[Aib]QGTFTSDYSKYLDEQAAKEFIC(PEG)WLMNT-NH2 (lactam 16-20; not fully specified; reading uncertain) [Chimera AIB2, Cys24 Lactam (SEQ ID NO: 504), parent w/PEG]
% Potency Relative to Native (GLP-1 receptor [1]): 38%
% Potency Relative to Native (glucagon receptor [2]): 9.2%

HSQGTFTSDYSKYLDSRRAQDFVQWLVKGGPSSGAPPPS-NH2 [-VKGG30 PSSGAPPPS (SEQ ID NO: 524)]
EC50 (GLP-1 receptor [3]): 0.21 nM
EC50 (glucagon receptor [4]): 1.16 nM

HSQGTFTSDYSKYLEERRAQDFVQWLMNT-NH2 [E15, E16 Gluc-NH2]
cAMP Induction, Percent Potency Relative to Native Ligand (GLP-1 receptor [5]): 9.2%

HS[Nle]GTFTSDYSKYLDERRAQDFVQWLMNT-NH2 [NLeu3, E16 Gluc-NH2]
cAMP Induction, Percent Potency Relative to Native Ligand (GLP-1 receptor [6]): 20.6%

HSQGTFTSDYSKYLDSRRAQDFVQWLMNGGPSSGAPPPS-NH2 [-MNGG30 PSSGAPPPS (SEQ ID NO: 522)]
EC50 (GLP-1 receptor [3]): 0.31 nM

HS[Orn]GTFTSDYSKYLDERRAQDFVQWLMNT-NH2 [Orn3, E16 Gluc-NH2]
cAMP Induction, Percent Potency Relative to Native Ligand (GLP-1 receptor [6]): 0.1%

HAEGTFTSDVSSYLEGQAAKEFIAWLVKGG-NH2 [GLP-1-VKGG30 (SEQ ID NO: 527)]
EC50 (GLP-1 receptor [3]): 0.025 nM

HSQGTFTSDYSKYLDSRRAQDFVQWLMKGGPSSGAPPPS-NH2 [-MKGG30 PSSGAPPPS (SEQ ID NO: 523)]
EC50 (GLP-1 receptor [3]): 0.8 nM
EC50 (glucagon receptor [4]): 0.61 nM

H[Aib]QGTFTSDYSKYLDEQAAKEFIC(PEG)WLMNT-NH2 (not fully specified; reading uncertain) [Chimera AIB2, Cys24 (SEQ ID NO: 486), parent w/PEG]
% Potency Relative to Native (GLP-1 receptor [1]): 82.5%
% Potency Relative to Native (glucagon receptor [2]): 2.6%

HSQGTFTSDYSKYLDSRRAQDFVQWLMNTGPSSGAPPPS (C-terminal amide) [Glucagon-Cex]
EC50 (glucagon receptor [4]): 0.14 nM

HSQGTFTSDYSKYLDSRRAQDFVQWLMDGGPSSGAPPPS-NH2 [-MDGG30 PSSGAPPPS (SEQ ID NO: 525)]
EC50 (GLP-1 receptor [3]): 0.13 nM
EC50 (glucagon receptor [4]): 0.12 nM

H[Aib]QGTFTSDYSKYLDEQAAKEFICWLMNT-NH2 (lactam 16-20) [Chimera AIB2, Cys24 Lactam (SEQ ID NO: 504), parent w/o PEG]
% Potency Relative to Native (GLP-1 receptor [1]): 230%
% Potency Relative to Native (glucagon receptor [2]): 114%

HSQGTFTSDYSKYLDERRAKDFVQWLMDGGPSSGAPPPS-NH2 [E16K20-MDGG30 PSSGAPPPS (SEQ ID NO: 526)]
EC50 (GLP-1 receptor [3]): 0.02 nM
